The test system of experiment [1] is culture-activated primary rat HSCs. Kind of experiment: Activation of culture-activated primary hepatic stellate cells. In kind it is cell-based. The protocol:
Primary HSCs were isolated by in situ perfusion with collagenase and pronase from livers of male Sprague-Dawley rats (300-450 g), followed by a 25%/50% Percoll gradient centrifugation at 4° C. HSCs were isolated from the upper layer of the discontinuous Percoll density gradient as previously described method (Titos et al., FASEB J 2003 17:1745-1747). Then cells were re-suspended in Dulbecco's modified Eagle's medium (DMEM) supplemented with 10% fetal bovine serum (FBS) and 1% penicillin/streptomycin and plated on 100-mm plastic dishes. Cell purity was verified to be approximately 95-98% by vitamin A fluorescence on day 2 after isolation. HSCs were activated by culturing the cells on plastic for 10 days and then passaged by trypsin-EDTA treatment. Subsequently, the activated HSCs were incubated in 10% FBS-DMEM for 2 days and then used for further experiments.
Deparaffinized liver tissue sections or 4% paraformaldehyde fixed HSCs were blocked with 10% goat serum and 5% BSA for 1 h. Dual staining was done using primary antibodies against human PEDF (se-59641; Santa Cruz Biotechnology, CA, USA) or α-SMA (ab5694 or ab7817; Abcam), PPARγ (sc-7273; Santa Cruz Biotechnology), albumin (sc-46295; Santa Cruz Biotechnology) or cytokeratin (CK) 18 (GTX112978; GeneTex, Inc.) at 37° C. for 2 h, followed by incubation with the appropriate rhodamine- or FITC-conjugated donkey IgG for 1 hr at room temperature. Nuclei were located by counterstaining with Hoechst 33258 for 7 min. Images were captured using a Zeiss epifluorescence microscope with a CCD camera.
Cells were scraped into lysis buffer (150 μL/35-mm well) containing 20 mM HEPES (pH 7.4), 1% SDS, 150 mM NaCl, 1 mM EGTA, 5 mM β-glycerophosphate, 10 mM sodium pyrophosphate, 10 mM sodium fluoride, […] sodium orthovanadate, 10 μg/mL leupeptin, and 10 μg/mL aprotinin. The lysate was incubated on ice for 15 min. Total cell lysate was also separated into cytoplasmic and nuclear fractions using the NE-PER nuclear and cytoplasmic extraction kit (Pierce, Rockford, Ill.) according to the manufacturer's instructions. Each cellular fraction was then resolved by SDS-PAGE and then electrotransferred to polyvinylidene difluoride membranes (Millipore, Bedford, Mass.) and processed for immunoblot analysis. Antibodies used in the immunoblot study included human PEDF (sc-59641; Santa Cruz Biotechnology), mouse PEDF (sc-74253; Santa Cruz Biotechnology), type I collagen 1A1 (sc-25974; Santa Cruz Biotechnology), α-SMA (ab5694 or ab7817; Abcam), PPARγ••(sc-7273; Santa Cruz Biotechnology), MCP-1 (ab7202; Abcam Ltd), α-actin (Sigma), epithelial cell adhesion molecule (EpCAM; sc-66020; Santa Cruz Biotechnology), hepatocytes nuclear factor and (HVF)3-β (sc-6554; Santa Cruz Biotechnology). Proteins of interest were detected using the appropriate IgG-HRP secondary antibody and ECL reagent. X-ray films were scanned on a Model GS-700 Imaging Densitometer (Bio-Rad Laboratories, Hercules, Calif.) and analyzed using Labworks 4.0 software. For quantification, blots from at least three independent experiments were used.
After treatment, primary rat HSCs were fixed for 2 h with 4% paraformaldehyde, washed by PBS and then permeabilized for 5 min with 0.1% Triton X-100. Changes in F-actin structures were detected by […] rhodamine-conjugated phalloidin (Sigma) for 1 h at room temperature. Stained F-actin was visualized using a Zeiss Axiovert 25 microscope.
To verify whether the PEDF-derived peptides, particularly, 34-mer PEDF and 44-mer PEDF, may prevent HSCs from activation, culture-activated primary rat HSCs were treated with 4.5 nM PEDF, 50 nM 44-mer, 50 nM 34-mer or PEDF solvent (20 mM Tris/HCl, pH 7.4, 100 mM NaCl) for 48 hours. […] Immunofluorescent assay also confirmed that 34-mer PEDF reduced the levels of α-SMA in culture-activated HSCs as compared with 44-mer PEDF treatment (FIG. 6F). Such result is consistent with the finding in Example 1 that PEDF prevents HSCs from activation by induction of PPARγ.

Experiment [2] deals with liver-derived progenitor cells (LDPCs) in primary rat liver cells. Kind of experiment: Clonogenic capacity of liver cells (LDPC colony formation). The settings on record: basal medium with 4.5 nM PEDF, 50 nM 34-mer, 50 nM 44-mer or 10% FBS; after 11 days in culture. Format: cell-based. The method, then: Liver cells from Sprague Dawley rats were harvested by 2-step in situ collagenase perfusion technique. The cells were then washed in phosphate buffered saline and centrifuged (50 g for 5 minutes) twice at room temperature. The cells were not further subjected to any fractionation as previously described (Sahin M B et al., Liver Transpl. 2008 14(3):333-45). Freshly isolated rat liver cells were cultured in a medium consisting of 75% Dulbecco's modified Eagle's medium (DMEM) and 25% MCDB 201 (Sigma-Aldrich) supplemented with 10% fetal bovine serum, 1 mg/mL of bovine serum albumin (BSA; Sigma), 100 μM of β-mercaptoethanol (Gibco, Carlsbad, Calif.), 25 mM of 4-2-hydroxyethyl-1-piperazineethanesulfonic acid (HEPES), 5 mM of Nicotinamide (Sigma-Aldrich), 1% SITE liquid medium (Sigma-Aldrich), and penicillin (100 μg/ml)/streptomycin (100 μg/ml; Invitrogen, Carlsbad, Calif.) on Type I collagen (Sigma, St. Louis, Mo.) coated tissue culture plates or dishes at a density of 1×10^4 cells/cm^2 at 37° C. in 5% CO2.
To verify the function of 44-mer PEDF, primary rat liver cells were isolated in accordance with steps described above and cultivated (about 1×10^5 per well of 6-well plate; 1×10^4 cells/cm^2) in a conventional basal medium, which was further supplemented with 4.5 nM PEDF, 50 nM 34-mer PEDF, 50 nM 44-mer PEDF or 10% FBS. Medium was changed every 3 days. After being placed in culture for 11 days, clonogenic capacity of liver cells was continuously monitored by phase-contrast microscopy. During this time period, liver-derived progenitor cells (LDPCs) began markedly emerged in primary liver cultures while hepatocytes started dying out. Few colonies were formed by liver cells when continuously cultivated in basal medium, or medium supplemented with 34-mer or FBS.

[3] abbreviates: 48 hours vs solvent, 4.5 nM PEDF, 50 nM 34-mer, 50 nM 44-mer.

B1: pigment-epithelium-derived factor (protein, UniProt P36955 20-418, looked up)
Pigment epithelium-derived …: QNPASPPEEGSPDPDSTGALVEEEDPFFKVPVNKLAAAVSNFGYDLYRVRSSTSPTTNVLLSPLSVATALSALSLGAEQRTESIIHRALYYDLISSPDIHGTYKELLDTVTAPQKNLKSASRIVFEKKLRIKSSFVAPLEKSYGTRPRVLTGNPRLDLQEINNWVQAQMKGKLARSTKEIPDEISILLLGVAHFKGQWVTKFDSRKTSLEDFYLDEERTVRVPMMSDPKAVLRYGLDSDLSCKIAQLPLTGSMSIIFFLPLKVTQNLTLIEESLTSEFIHDIDRELKTVQAVLTVPKLKLSYEGEVTKSLQEMKLQSLFDSPDFSKITGKPIKLTQVEHRAGFEWNEDGAGTTPSPGLQPAHLTFPLDYHLNQPFIFVLRDTDTGALLFIGKILDPRGP
notes: pigment-epithelium-derived factor protein, used at 4.5 nM (200 ng/ml)
On to B1, for which, in experiment [1] (setting [3]), the “Col1a1 expression (immunoblot)” value is reported as “significantly reduced”, the “MCP-1 expression (immunoblot)” value was “significantly reduced”, the “amounts of PPARγ (immunoblot)” value was “enhanced” and the “α-SMA expression (immunoblot)” value is reported as “significantly reduced”. Further, in experiment [1] (culture-activated HSCs), the “stress fiber (F-actin, rhodamine-phalloidin staining)” value was “reduced”. For the same molecule, the “α-SMA by immunofluorescent staining” value in experiment [1] (culture-activated HSCs, 34-mer compared with 44-mer PEDF treatment) is listed as “reduced”. In addition, the HSC morphology entry in experiment [1] (culture-activated HSCs, phase contrast / immunofluorescence) is recorded as “dendritic-like morphology with retracted cytoplasm”. The “colonies of LDPCs formed” value in experiment [2] was “dense colonies”.

These data come from patent US8507446B2, “Use of PEDF-derived polypeptides for treating liver cirrhosis” (MacKay Memorial Hospital, priority 2011, dated 2013).
